The results in this text go back to PMC4666417, “Specific Interaction between eEF1A and HIV RT Is Critical for HIV-1 Reverse Transcription and a Potential Anti-HIV Target” (PLoS Pathogens, 2015).

The target of assay [1] is T1, HIV-1 RT p66, 6xHis-tagged, purified (gift) (HIV-1, UniProt P04585 588-1147).
T1 construct: source: E. coli, purified; gift
The assay is described as follows: BLI; biotinylated eEF1 subunit (eEF1A1, eEF1B, eEF1D or eEF1G) immobilised on streptavidin biosensor; RT subunits, RT heterodimer, Gag or RTp66 mutants as analytes at 90, 30 and 10 nM (mutants at 90 nM); kinetic buffer 1 mM phosphate, 15 mM NaCl, 0.002% Tween-20, 0.1 mg/ml gelatine, 1000 rpm, OctetRed. The note with it: both partners purified. For orientation: In BLI a coated tip is dipped into the sample, and binding shifts an interference pattern.

Assay [2] concerns the target HIV-1 Gag, 6xHis-tagged, purified (HIV-1). The assay is described as above. The note with it: both partners purified.

B1: eEF1A1 (eukaryotic elongation factor 1 subunit A1), MYC/DDK-tagged (natural protein, human, UniProt P68104 1-462, looked up)
chain: MGKEKTHINIVVIGHVDSGKSTTTGHLIYKCGGIDKRTIEKFEKEAAEMGKGSFKYAWVLDKLKAERERGITIDISLWKFETSKYYVTIIDAPGHRDFIKNMITGTSQADCAVLIVAAGVGEFEAGISKNGQTREHALLAYTLGVKQLIVGVNKMDSTEPPYSQKRYEEIVKEVSTYIKKIGYNPDTVAFVPISGWNGDNMLEPSANMPWFKGWKVTRKDGNASGTTLLEALDCILPPTRPTDKPLRLPLQDVYKIGGIGTVPVGRVETGVLKPGMVVTFAPVNVTTEVKSVEMHHEALSEALPGDNVGFNVKNVSVKDVRRGNVAGDSKNDPPMEAAGFTAQVIILNHPGQISAGYAPVLDCHTAHIACKFAELKEKIDRRSGKKLEDGPKFLKSGDAAIVDMVPGKPMCVESFSDYPPLGRFAVRDMRQTVAVGVIKAVDKKAAGAGKVTKSAQKAQKAK
modifications: biotinylated with EZ-Link Sulfo-NHS-Biotin where immobilised on the biosensor
notes: human eEF1A1, full-length; Used as analyte (a1, a2, a5) and, biotinylated, as immobilised ligand (a3); also called MYC/DDK-eEF1A1; purified eEF1A; source: HEK293 cells, bought: OriGene; not shown: MYC, C-terminal, kept; DDK, C-terminal, kept
The term Kd denotes a measure of binding affinity in units of concentration. Broadly, the koff is the first-order rate constant of dissociation. Read a low koff as slow dissociation. By kon is commonly meant the rate constant with which the complex forms. For B1, in assay [1], binding was characterised by a dissociation constant (Kd) of 3.19 ± 1.08 nM, the koff amounted to 0.000222 s⁻¹ and the kon worked out at 69500 M⁻¹ s⁻¹. In assay [2], this molecule had a Kd of 21.5 ± 11.1 nM, a koff of 0.00188 s⁻¹ and a kon of 87500 M⁻¹ s⁻¹.
